Patent US20160185837A1, “GIP AND GLP-1 RECEPTOR DUAL-AGONISTS FOR THE TREATMENT OF DIABETES” (Medimmune Limited, priority 2013, published 2016)

T1: human GIP receptor (human) (UniProt P48546)
T1 sequence (looked up): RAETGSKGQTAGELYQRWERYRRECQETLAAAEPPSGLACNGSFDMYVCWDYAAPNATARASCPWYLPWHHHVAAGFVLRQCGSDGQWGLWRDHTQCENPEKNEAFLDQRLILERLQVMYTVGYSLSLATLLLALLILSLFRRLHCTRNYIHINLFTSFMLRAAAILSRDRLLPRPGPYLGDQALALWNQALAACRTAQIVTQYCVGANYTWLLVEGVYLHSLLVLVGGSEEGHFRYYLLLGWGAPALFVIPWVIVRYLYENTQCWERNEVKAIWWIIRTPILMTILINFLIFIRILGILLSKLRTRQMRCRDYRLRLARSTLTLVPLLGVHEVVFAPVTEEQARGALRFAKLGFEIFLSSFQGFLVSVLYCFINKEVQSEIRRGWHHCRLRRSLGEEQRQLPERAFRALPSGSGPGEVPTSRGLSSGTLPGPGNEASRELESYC


What was measured:
[1] = molecular target: T1, human GIP receptor (human); assay: cell-based or functional assay
[2] = molecular target: human GLP-1 receptor (human) (UniProt P43220); assay: cell-based or functional assay
Sequence of human GLP-1 receptor (human) (P43220 24-463): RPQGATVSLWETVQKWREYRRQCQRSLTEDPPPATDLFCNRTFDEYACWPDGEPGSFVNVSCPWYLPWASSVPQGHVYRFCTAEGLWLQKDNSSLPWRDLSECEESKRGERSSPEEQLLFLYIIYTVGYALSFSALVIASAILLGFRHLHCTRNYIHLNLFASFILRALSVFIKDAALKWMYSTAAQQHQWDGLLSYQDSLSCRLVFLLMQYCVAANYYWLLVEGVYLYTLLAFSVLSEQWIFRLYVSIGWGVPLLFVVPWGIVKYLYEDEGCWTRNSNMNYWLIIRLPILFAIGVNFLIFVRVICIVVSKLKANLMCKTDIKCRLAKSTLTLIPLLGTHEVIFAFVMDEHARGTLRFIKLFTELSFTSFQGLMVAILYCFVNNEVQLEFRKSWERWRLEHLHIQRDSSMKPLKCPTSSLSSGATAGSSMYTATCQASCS

Binder | cAMP EC50 [1] [nM] | cAMP EC50, Batch 1 [2] [pM] | cAMP EC50 [2] [pM]
IP196 (Fc fusion) HGEGTFTSDVSSYLEGQAAKEFIAWLVKGAAAGGSGSTASSGSGSATGGGGAPEF |  | 73 | 
IP197 (Fc fusion) YSEGTFTSDVSSYMERQAIDEFIAWLLAGAAAGGSGSTASSGSGSATGGGGAATHTCPPCPAPEF | 0.18 |  | 780
IP171 (Fc fusion) YSEGTFTSDVSSYMERQAISEFIAWLLAGAAAGGSGSTASSGSGSATGGGGAATHTCPPCPAPEF | 0.39 |  | 530
IP199 (Fc fusion) HGEGTFTSDVSSYLEGQAAKEFIAWLLAGAAAGGSGSTASSGSGSATGGGGAATHTCPPCPAPEF |  |  | 69
IP173 (Fc fusion) YSEGTFTSDVSSYLEEQAAKEFIAWLLAGAAAGGSGSTASSGSGSATGGGGAATHTCPPCPAPEF | 1.2 |  | 230
IP194 (Fc fusion) HGEGTFTSDVSSYLEGQAAKEFIAWLVKGAAAGGSGSTASSGSGSATGGGGPPCPPCPAPEF |  | 61 | 
IP174 (Fc fusion) HGEGTFTSDVSSYLEEEAAKEFIAWLVAGGAAAGGSGSTASSGSGSATGGGGAATHTCPPCPAPEF | 460 |  | 32
IP195 (Fc fusion) HGEGTFTSDVSSYLEGQAAKEFIAWLVKGAAAGGSGSTASSGSGSATGGGGESKYGPPCPPCPAPEF |  | 61 | 
IP191 (Fc fusion) HGEGTFTSDVSSYLEGQAAKEFIAWLVKGAAAGGSGSTASSGSGSATGGGGAATYTCPPCPAPEF |  | 57 | 
IP192 (Fc fusion) HGEGTFTSDVSSYLEGQAAKEFIAWLVKGAAAGGSGSTASSGSGSATGGGGAATSTCPPCPAPEF |  | 43 | 
IP176 (Fc fusion) YSEGTFTSDVSSYMERQAISEFIAWLLKGPAAAGGSGSTASSGSGSATGGGGAATHTCPPCPAPEF | 0.42 |  | 600
IP150 (Fc fusion) YSEGTFTSDVSSYLEGQAAKEFIAWLVAGGAPPGGSGSTASSGSGSATGGGGAATHTCPPCPAPEF | 16 |  | 33

Results, then the binder that gave them:

cAMP EC50 [1] [nM] | cAMP EC50, Batch 1 [2] [pM] | cAMP EC50 [2] [pM] | Binder
2300 |  |  | GGGGGSGGGGSGGGGSGGGGSATHTCPPC (Fc fusion, not shown: a dimerising Fc or GST) [IP288]
 | 36 |  | IP233 (Fc fusion) HGEGTFTSDVSSYLEEQAAKEFIAWLVKGAAAGGSGSTASSGSGSATGGGGAATHTCPPCPAPEF
17 |  | 1600 | IP208 (Fc fusion) YSEGTFTSDVSSYLEGQAAKEFIAWLLAGAAAGGSGSTASSGSGSATGGGGAATHTCPPCPAPEF
 | 67 |  | IP231 (Fc fusion) HGEGTFTSDVSSYLEEQAAKEFIAWLVKGGGGGGSGGGGSGGGGSGGGGSATHTCPPC
0.12 |  | 850000 | IP204 (Fc fusion) HGEGTFISDYSIAMDKIHQQDFVNWLLAQKAAAGGSGSTASSGSGSATGGGGAATHTCPPCPAPEF
0.35 |  | 570 | IP224 (Fc fusion) YSEGTFTSDVSSYMERQAIDEFIAWLLGGGAAAGGSGSTASSGSGSATGGGGAATHTCPPCPAPEF
